{"source": "the supplement of paper PMC11865577", "data": [{"system": "TO-N3 (biotin conjugate)", "assay": "pull-down binding Z-score (relative to library population); higher = stronger binding", "settings": "RNA library: Library-2", "how_it_was_run": "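Cy5- or Cy3-end-labelled RNA library (1 μg) was heat-folded in phosphate/NaCl/KCl buffer and incubated 60 min at 25 °C with streptavidin beads carrying 100 pmol biotin-conjugated small molecule. After three washes, bound RNA was eluted in hot SDS and hybridised 20 h at 55.5 °C to a DNA barcode microarray. Binding was scored by subtracting a beads-only control, averaging barcoded replicate probes after dropping highest and lowest, and converting to a Z-score against library mean and standard deviation.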", "values": [{"sequence": "AGUGUUUGCCUAGGUUCUUUAAUCUACUCAACCGCU", "pull-down binding Z-score": -0.288}, {"sequence": "AGUUCAAGAAAUUCAACU", "pull-down binding Z-score": -0.478}, {"sequence": "AGUUCAAGAACUUUACUCUCCAAUUUUUCUUAUUGUUGCGGCAAUAGUGUUUAUAACACUUUGCUUCACACUCAAAAGAAAGACAGAAUGAUUGAACU", "pull-down binding Z-score": -1.27}, {"sequence": "AGUUGCUUACUCUAAUAACU [DMSMaPseq_invitro_SARS-CoV-2_Motif_421]", "pull-down binding Z-score": -0.387}, {"sequence": "AGUUGUGAUCAACU", "pull-down binding Z-score": -1.06}, {"sequence": "AGUUUACGCCCUGACACACGUUAUGUGCUCAUGGAUGGCU", "pull-down binding Z-score": -0.719}, {"sequence": "AGUUUUUGUACACAAUUAAACCGUGCUUUAACU", "pull-down binding Z-score": -0.618}, {"sequence": "AUAAAAUAGAAGAAUUAUUCUAUUCUUAU", "pull-down binding Z-score": -0.62}, {"sequence": "AUAAACCACCCAUUAGUUUUCCAUUGUGUGCUAAUGGACAAGUUUUUGGUUUAU", "pull-down binding Z-score": -1.34}, {"sequence": "AUAAAGAAAUGUAUCUAAAGUUGCGUAGUGAUGUGCUAUUACCUCUUACGCAAUAUAAUAGAUACUUAGCUCUUUAU", "pull-down binding Z-score": -0.507}, {"sequence": "AUAACAAUACUAGAUGGAAUUUCACAGUAUUCACUGAGACUCAUUGAUGCUAUGAUGUUCACAUCUGAUUUGGCUACUAACAAUCUAGUUGU", "pull-down binding Z-score": 0.384}, {"sequence": "AUAAGAAAGACAAUUCUUAU [DMSMaPseq_invitro_SARS-CoV-2_Motif_114]", "pull-down binding Z-score": -1.07}, {"sequence": "AUAAUAAGAGGCUGGAUUUUUGGUACUACUUUAGAUUCGAAGACCCAGUCCCUACUUAUUGU", "pull-down binding Z-score": -0.881}, {"sequence": "AUACCACUUAUGUACAAAGGACUUCCUUGGAAUGUAGUGCGUAU", "pull-down binding Z-score": -0.207}, {"sequence": "AUACCUGCACGUGCUCGUGUAGAGUGU", "pull-down binding Z-score": -0.0676}, {"sequence": "AUAGAUUAUGUACCACUAAAGUCUGCUACGUGUAUAACACGUUGCAAUUUAGGUGGUGCUGUCUGU", "pull-down binding Z-score": -1.01}, {"sequence": "AUAUAACUUCUAAAGAAACUUUGUAU", "pull-down binding Z-score": -1.28}, {"sequence": "AUAUGUUUACACCACUAAUUCAACCUAUUGGUGCUUUGGACAUAU [DMSMaPseq_invitro_SARS-CoV-2_Motif_171]", "pull-down binding Z-score": -0.635}, {"sequence": "AUCAAGACUAUUCAACCAAGGGUUGAAAAGAAAAAGCUUGAU", "pull-down binding Z-score": -0.904}, {"sequence": "AUCACUAGGUUUCAAACUUUACUUGCUUUACAUAGAAGUUAUUUGACUCCUGGUGAU", "pull-down binding Z-score": -0.884}, {"sequence": "AUCCGAUUUACAGGAU", "pull-down binding Z-score": -0.894}, {"sequence": "AUCUACAAUGAU [DMSMaPseq_invitro_SARS-CoV-2_Motif_243]", "pull-down binding Z-score": -0.892}, {"sequence": "AUCUGAAUUCUUCUAGAGUUCCUGAU", "pull-down binding Z-score": 0.466}, {"sequence": "AUCUUAGGGAAUUUGUGUUUAAGAAUAUUGAUGGUUAUUUUAAAAUAUAUUCUAAGCACACGCCUAUUAAUUUAGUGCGUGAUCUCCCUCAGGGU", "pull-down binding Z-score": -0.897}, {"sequence": "AUCUUCUGCAGGCUGCUUACGGUUUCGUCCGUGUUGCAGCCGAUCAUCAGCACAUCUAGGUUUUGUCCGGGUGUGACCGAAAGGUAAGAU [DMSMaPseq_invitro_SARS-CoV-2_Multi_2_ComplexLevel_1]", "pull-down binding Z-score": -1.06}, {"sequence": "AUCUUUCUGUGCUUUUGCUGUAGAUGCUGCUAAAGCUUACAAAGAU", "pull-down binding Z-score": 0.0426}, {"sequence": "AUGAACCACAAAUCAU [DMSMaPseq_invitro_SARS-CoV-2_Motif_444]", "pull-down binding Z-score": 0.254}, {"sequence": "AUGAAUCUCUCAU [SHAPE_invivo_SARS-CoV-2_Motif_473]", "pull-down binding Z-score": -0.427}, {"sequence": "AUGAGAAGUGCUCUGCCUAUACAGUUGAACUCGGUACAGAAGUAAAUGAGUUCGCCUGUGUUGUGGCAGAUGCUGUCAU [SHAPE_invitro_SARS-CoV-2_Motif_53]", "pull-down binding Z-score": 0.461}, {"sequence": "AUGAGGUUUAGAAGAGCUUUUGGUGAAUACAGUCAUGUAGUUGCCUUUAAUACUUUACUAUUCCUUAU", "pull-down binding Z-score": -0.296}, {"sequence": "AUGAGUACGAACUUAUGUACUCAU", "pull-down binding Z-score": -0.309}, {"sequence": "AUGAUGUUUCUUUUUUAGCACAU", "pull-down binding Z-score": -1.09}, {"sequence": "AUGCAUUCUGCAU [SHAPE_invivo_SARS-CoV-2_Motif_273]", "pull-down binding Z-score": -0.142}, {"sequence": "AUGCCAACUAUUUUCUUUGCUGGCAU", "pull-down binding Z-score": -1.36}, {"sequence": "AUGCCUUUUUACCUUUUGCUAUGGGUAUUAUUGCUAUGUCUGCUUUUGCAAUGAUGUUUGUCAAACAUAAGCAUGCAU [DMSMaPseq_invitro_SARS-CoV-2_Multi_36_ComplexLevel_1]", "pull-down binding Z-score": 0.0122}, {"sequence": "AUGCUGACGAUGGUCAUUUUGUCAGCAU [IAV_invivo_M1_M2_7_Motif_18+IAV_invivo_M1_M2_7_Motif_18]", "pull-down binding Z-score": -0.322}, {"sequence": "AUGCUGUUACAGCGU", "pull-down binding Z-score": -1.35}, {"sequence": "AUGCUUGGAACAGGAAGAGAAUCAGCAACUGUGUUGCUGAUUAUUCUGUCCUAUAUAAUUCCGCAU [DMSMaPseq_invitro_SARS-CoV-2_Motif_399]", "pull-down binding Z-score": -0.459}, {"sequence": "AUGGCCCCGAUUUCAGCUAU [SHAPE_invivo_SARS-CoV-2_Motif_151]", "pull-down binding Z-score": -0.668}, {"sequence": "AUGGCUGAUCAAGCUAU [DMSMaPseq_invitro_SARS-CoV-2_Motif_216]", "pull-down binding Z-score": -0.208}, {"sequence": "AUGGUAAGUGCGAUACUUACCUG [U1snRNP5ss-24]", "pull-down binding Z-score": -0.213}, {"sequence": "AUGGUCUUUGUUCUUUUUUUUGUAUGAAAAUGCCUUUUUACCUUUUGCUAUGGGUAUUAUUGCUAU", "pull-down binding Z-score": -0.507}, {"sequence": "AUGGUGCUAACAAAGACGGCAUCAU [SHAPE_invivo_SARS-CoV-2_Motif_545]", "pull-down binding Z-score": -0.143}, {"sequence": "AUGGUUAUCUUACUUCUUCUUCUAAAACACCUGAAGAACAUUUUAUUGAAACCAU", "pull-down binding Z-score": -1.19}, {"sequence": "AUGUACAUCUUCUUUGCAUCAUUUUAUUAUGUAUGGAAAAGUUAUGUGCAU", "pull-down binding Z-score": -1.36}, {"sequence": "AUGUACUUGGAUUGGCUGCAAUCAUGCAAUUGUUUUUCAGCUAUUUUGCAGUACAU", "pull-down binding Z-score": -0.401}, {"sequence": "AUGUCAUAUUGGAGUUGGACUGCAGGGCUUCCUUUACACAAUAAAUAUUGUAUGAAGUGCUGAUGUAACCUUUACUGCAGCAUGACAU [hsa-mir-3976]", "pull-down binding Z-score": 0.227}, {"sequence": "AUGUUUGUCAAACAUAAGCAU [DMSMaPseq_invitro_SARS-CoV-2_Motif_200]", "pull-down binding Z-score": -0.873}, {"sequence": "AUUACUGCAAAAUGGUAUGAAUGGACGUACCAUAUUGGGUAGU [DMSMaPseq_invitro_SARS-CoV-2_Motif_194]", "pull-down binding Z-score": 0.0935}, {"sequence": "AUUAGAGAAAACAACAGAGUUGUUAUUUCUAGU [DMSMaPseq_invitro_SARS-CoV-2_Motif_378]", "pull-down binding Z-score": -0.17}, {"sequence": "AUUAUGAGGACUUUUAAAGUUUCCAUUUGGAAUCUUGAUUACAUCAUAAACCUCAUAAU", "pull-down binding Z-score": -1.39}, {"sequence": "AUUAUGUGUACCUUCCUUACCCAGAUCCAUCAAGAAUCCUAGGGGCCGGCUGUUUUGUAGAUGAUAUCGUAAAAACAGAUGGUACACUUAUGAU [DMSMaPseq_invitro_SARS-CoV-2_Multi_47_ComplexLevel_1]", "pull-down binding Z-score": 0.0551}, {"sequence": "AUUCUAUUCUAUUCUAUUCU [r(AUUCU)4]", "pull-down binding Z-score": 1.03}, {"sequence": "AUUCUGAAGUUGUUCUUAAAAAGUUGAAGAAGUCUUUGAAU [DMSMaPseq_invitro_SARS-CoV-2_Motif_213]", "pull-down binding Z-score": -1.03}, {"sequence": "AUUGACAUUAAUGGCAAUCUUCAUCCAGAUUCUGCCACUCUUGUUAGU [DMSMaPseq_invitro_SARS-CoV-2_Motif_73]", "pull-down binding Z-score": -0.723}, {"sequence": "AUUGGCGACCCUGCUCAAU [DMSMaPseq_invitro_SARS-CoV-2_Motif_311]", "pull-down binding Z-score": 0.0933}, {"sequence": "AUUGGUGCAGGUAUAUGCGCUAGU", "pull-down binding Z-score": -1.16}, {"sequence": "AUUGUUACAUAAACCUAUUGUUUGGCAUGUUAACAAU", "pull-down binding Z-score": -0.895}, {"sequence": "AUUGUUCAACUUAGUGAAAUUAGUAUGGACAAU", "pull-down binding Z-score": 0.606}, {"sequence": "AUUGUUGUCGCUUCCAAGAAAAGGACGAAGAUGACAAU [DMSMaPseq_invitro_SARS-CoV-2_Motif_245]", "pull-down binding Z-score": -0.00678}, {"sequence": "AUUUGAACUCUACUAAUGUCACUAUUGCAACCUACUGUACUGGUUCUAUACCUUGUAGUGUUUGUCUUAGUGGUUUAGAU", "pull-down binding Z-score": -1.06}, {"sequence": "AUUUUUCUAAACUGAUAAAU [DMSMaPseq_invitro_SARS-CoV-2_Motif_131]", "pull-down binding Z-score": -0.771}, {"sequence": "CAAAUGUGCCUUUCAACUCUCAUGAAGUGUGAUCAUUGUGGUGAAACUUCAUGGCAGACGGGCGAUUUUG", "pull-down binding Z-score": -0.576}, {"sequence": "CAACAAAAGUUG [SHAPE_invivo_SARS-CoV-2_Motif_413]", "pull-down binding Z-score": -1.44}, {"sequence": "CAACAAUGUGUGAUAUCAGACAACUACUAUUUGUAGUUGAAGUUGUUG", "pull-down binding Z-score": -0.104}, {"sequence": "CAACCUAAAUAGAGGUAUG", "pull-down binding Z-score": -0.716}, {"sequence": "CAACGGUACUAUUACCGUUG", "pull-down binding Z-score": -0.553}, {"sequence": "CAACGUAAGUUG [DMSMaPseq_invitro_SARS-CoV-2_Motif_215]", "pull-down binding Z-score": -0.732}, {"sequence": "CAACUCUCAUGAAGUGUGAUCAUUGUGGUGAAACUUCAUGGCAGACGGGCGAUUUUGUUAAAGCCACUUGCGAAUUUUG", "pull-down binding Z-score": -0.161}]}]}
